This note sets out measurements from the supplement of paper PMC9170038.

The subject of the data set is MS2 coat protein. The data set is described as follows: apparent KD of MS2 coat protein; designed switch direction (-1 OFF switch, 1 ON switch): -1; higher = weaker reporter binding. The method in brief:
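Designed RNA switches were transcribed on Illumina chips by stalled E. coli RNA polymerase and titrated with SNAP-549-labelled MS2 coat protein from 0.7 or 1.5 nM, doubling to 3 µM. Step length ran from 0.8–1.5 h at the lowest concentration to 10–20 min at the highest. The apparent KD is the median over clusters for each design, from curve-fitted normalised cluster fluorescence.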

Setting [1] is: Eterna round: R95, input ligand: FMN 200 uM.
[2] abbreviates: Eterna round: R95, input ligand: microRNA oligo, concentration not stated.
[3] abbreviates: Eterna round: R95, input ligand: none.
Where [4] appears, read: input ligand: microRNA oligo, concentration not stated.

As to “UUAAGCUUUGAGAUCCUUAACAUGAGGAUCACCCAUGUUCGUCUUAUGAUGGUCUGAUCCCUGAGGAUCGGACCGUA [Mat - Sensor v3 - turn-off var 1 - JL Mod - D4] (puzzle: Sensor v3, turn-off variant 1)”, the “apparent KD of MS2 coat protein” value by setting is: under setting [1], 180 nM; under setting [2], 11.2 nM; under setting [3], 219 nM.

Turning to “UUAAUGUGAGGAUAUCAAGAGAGAAAGAGUAAUGGUAAAUAUGAGAAGGCACAUGAGGAUCACCCAUGUUCUUC [Mat - Exclusion 4 - Mod of JL - D60] (puzzle: Exclusion 4)”, the “apparent KD of MS2 coat protein” value under setting [2] turned out to be 14.2 nM.

On to “UUAAUGUGAGGAUAUGGUAAAGAUAGAAUGAUGAAAGAACUCCAGAAGGCACAUGAGGAUCACCCAUGUAGAUG [Mat - Exclusion 4 - Mod of JL - D28] (puzzle: Exclusion 4)”, for which the “apparent KD of MS2 coat protein” value under setting [1] amounted to 68.3 nM, the “apparent KD of MS2 coat protein” value under setting [2] turned out to be 30.5 nM and the “apparent KD of MS2 coat protein” value under setting [3] came to 42 nM.

On to “UUAAUUAAUGUCAGGAUAUCUAGAGCCUCGGCUCUAGAGAAGGGACAUGAGGAUCACCCAUGUCACUCUUAAUU [BmEx4/3-C2] (Eterna round: R97, puzzle: Brourd's mod of Exclusion 4)”, for which the “apparent KD of MS2 coat protein” value is, setting by setting: (input ligand: FMN 200 uM) 19.5 nM; (input ligand: none) 18.7 nM.

Consider “UUAAUUAAUUAAGGCUGAAGAUCACAUGAGGAUCACCCAUGUAAGGAUAUCAGCUCGUUUAGAGCUGAGAAGGUACAUGCAGCC [ExNG3/18-B2] (Eterna round: R96, puzzle: Exclusion NG 3)”, for which the “apparent KD of MS2 coat protein” value came out at 160 nM (input ligand: FMN 200 uM), 568 nM under setting [4] and 370 nM (input ligand: none).

Consider “UUAAUUAAUUUAAUAUAAGAUCACAUGAGGAUCACCCAUGUAUAGGAUAUCAGCUCGUGUAGAGCUGAGAAGGAUACAUAAUAU [ExNG3/2-B3] (Eterna round: R96, puzzle: Exclusion NG 3)”, for which the “apparent KD of MS2 coat protein” value reads like this: (input ligand: FMN 200 uM) 105 nM; under setting [4], 161 nM; (input ligand: none) 155 nM.

“UUAAUUAGCUCGCUAGAUCCUCACAUGAGGAUCACCCAUGUGCAGGAUAUCAGCUCGUGUAGAGCUGAGAAGGGCACUGCGAGC [ExNG3/10-A3] (Eterna round: R96, puzzle: Exclusion NG 3)”: the “apparent KD of MS2 coat protein” value (input ligand: FMN 200 uM) amounted to 51.6 nM, the “apparent KD of MS2 coat protein” value under setting [4] worked out at 88.2 nM and the “apparent KD of MS2 coat protein” value (input ligand: none) stood at 108 nM.

As to “UUAAUUUGAGGAUAUACUAUUAACCACAUGAGGAUCACCCAUGUUCUAUCAUGUAUAUGUGUAGAAGGCAGAAUGC [JR_Ex5_Sub071] (Eterna round: R97, puzzle: Exclusion 5)”, the “apparent KD of MS2 coat protein” value is, setting by setting: (input ligand: FMN 200 uM) 58.1 nM; (input ligand: none) 50.7 nM.

As for “UUACAAUGUCGCUUAAUAGCUUUUUGCUCGUCUUAUAUUACAUGAGGAUCACCCAUGUAGAUCAUGUGGCGUGACCU [JL ViennaUCT Maridi mod 7] (puzzle: Sensor v3, turn-off variant 2)”, the “apparent KD of MS2 coat protein” value reads like this: under setting [1], 206 nM; under setting [2], 40.7 nM; under setting [3], 210 nM.

As for “UUACGGCGGAGAGGAUAUCCGAAAGGAAGUGUAGGAGAAGGCUCCAGUUGUACAUGAGGAUCACCCAUGUGAUCCUUUCCGAAA [PowerStrip EXNG 1.25] (Eterna round: R96, puzzle: Exclusion NG 1)”, the “apparent KD of MS2 coat protein” value is, setting by setting: (input ligand: FMN 200 uM) 2040 nM; under setting [4], 79.7 nM; (input ligand: none) 126 nM.

Regarding “UUAGUAUUGCAAGGAUAUGUUUAUGAUAUUUUUCCUCUUACAUGAGGAUCACCCAUGUUUAACUUACAGAAGGUGCUAUGAUUU [JR_ExcNG2_Sub031] (Eterna round: R96, puzzle: Exclusion NG 2)”, the “apparent KD of MS2 coat protein” value under setting [4] is 342 nM.

For “UUAUACAAGCAAAGAUCCCACAUGAGGAUCACCCAUGUGCUCGUCUUAUAAGGUACUGUGACGAUAGUCACGGUACC [Mat - Sensor, turn-off var - Eli Mod - D102] (Eterna round: R97, puzzle: Sensor, turn-off variant 1)”, the “apparent KD of MS2 coat protein” value turned out to be 38.3 nM (input ligand: FMN 200 uM) and 49.9 nM (input ligand: none).

Turning to “UUAUACGUUGAGGAUAUGCGACUUUGUAUAGUUGUAGAAGGCGAUACAUGAGGAUCACCCAUGUUUAUGGGCAU [LRO-Ex6-10] (puzzle: Exclusion 6)”, the “apparent KD of MS2 coat protein” value under setting [2] came out at 186 nM.

Regarding “UUAUACGUUGAGGAUAUGCGAUUUAGUAUAGUUGUAGAAGGCGAUACAUGAGGAUCACCCAUGUUUAUGGGCAU [LRO-Ex6-08] (puzzle: Exclusion 6)”, the “apparent KD of MS2 coat protein” value under setting [2] is 268 nM.

On to “UUAUAGUAUGUAGGAUAUCGGUCAGUUUCUGAUCGAGAAGGACAUGAGGAUCACCCAUGUAAGGCUACCGGUUUCUGGUGGCCG [JL ENG1 3.53] (Eterna round: R96, puzzle: Exclusion NG 1)”, for which the “apparent KD of MS2 coat protein” value came to 122 nM (input ligand: FMN 200 uM), 16.5 nM under setting [4] and 26.1 nM (input ligand: none).

On to “UUAUAUAGUGUGAGGAUAUGCUGGUCCUUGGAUCAGCAGAAGGCACAUGAGGAUCACCCAUGUAGUUUAUUAUU [Mat - Exclusion 4 - JL Mod - D10] (puzzle: Brourd's mod of Exclusion 4)”, for which the “apparent KD of MS2 coat protein” value under setting [2] was determined as 24.8 nM.

In the case of “UUAUCCCAUGUGAGGAUAUUAUUUUAAAGAUGCAAUGAGAAGGUACAUGAGGAUCACCCAUGUCCGCGAAAUAU [Eternabot (L2) Solution 57] (Eterna round: R97, puzzle: Brourd's mod of Exclusion 4)”, the “apparent KD of MS2 coat protein” value (input ligand: FMN 200 uM) was found to be 15.4 nM and the “apparent KD of MS2 coat protein” value (input ligand: none) was 15.4 nM.

For the sequence “UUAUUAAGUGUGAGGAUAUGCUGGUCCUUGGAUCAGCAGAAGGCACAUGAGGAUCACCCAUGUACUUUAUAAAU [JL bmx4 3.05] (puzzle: Brourd's mod of Exclusion 4)”, the “apparent KD of MS2 coat protein” value under setting [2] amounted to 14.6 nM.

Regarding “UUAUUACAAGCAAGAUCUCACAUGAGGAUCACCCAUGUGCUCGUCUUAAAAGGUACUGUGACGAAAGUCACGGUACC [Eli 100 v3] (Eterna round: R97, puzzle: Sensor, turn-off variant 1)”, the “apparent KD of MS2 coat protein” value by setting is: (input ligand: FMN 200 uM) 16.4 nM; (input ligand: none) 14.9 nM.

“UUAUUACGAGGAUAUCGUUUUUAUCACAUGAGGAUCACCCAUGUUGUUUAUGUUUCGUUUCGAGAAGGCGUUUGUU [JR_E5_Sub066] (puzzle: Exclusion 5)”: the “apparent KD of MS2 coat protein” value under setting [2] was determined as 24.4 nM.

Turning to “UUAUUUCAAGCAAGAUCCUACAUGAGGAUCACCCAUGUGCUCGUCUUAUAAGGUACAGUGACGAAAGUCACAGUACC [Sensor 3, v1 - 000] (puzzle: Sensor v3, turn-off variant 1)”, the “apparent KD of MS2 coat protein” value by setting is: under setting [1], 173 nM; under setting [2], 152 nM; under setting [3], 202 nM.

Consider “UUCACAUGGACAUAAGAUCACAUGAGGAUCACCCAUGUGAAUAACAAGCUUUUUGUUCGUCUUAUGUCCAAUAAUAG [Stov1/14-B2] (Eterna round: R97, puzzle: Sensor, turn-off variant 1)”, for which the “apparent KD of MS2 coat protein” value reads like this: (input ligand: FMN 200 uM) 13.7 nM; (input ligand: none) 13.5 nM.

Turning to “UUCACAUGGACAUGAGAUCACAUGAGGAUCACCCAUGUGAAUAACAAGCUUUUUGUUCGUCUUAUGUCCAAUAAUAA [Stov1/14-D1] (Eterna round: R97, puzzle: Sensor, turn-off variant 1)”, the “apparent KD of MS2 coat protein” value reads like this: (input ligand: FMN 200 uM) 14.1 nM; (input ligand: none) 13.1 nM.
